Our source for the Km, kcat and kcat/Km values is article PMC11509930, “Improving Hydrolytic Activity and Enantioselectivity of Epoxide Hydrolase from Phanerochaete chrysosporium by Directed Evolution” (Molecules, 2024).

Substrate in data set [1]: c1ccc([C@@H]2CO2)cc1
Put plainly: purified protein. The format is biochemical, Phanerodontia chrysosporium. The settings on record: 10-80 mM SO, 37 °C, buffer pH 8.0.

Substrate in data set [2]: c1ccc([C@H]2CO2)cc1
Put plainly: purified protein. It counts as biochemical, Phanerodontia chrysosporium. As to conditions: 10-80 mM SO, 37 °C, buffer pH 8.0.

B1: PchEHA (epoxide hydrolase) (Phanerodontia chrysosporium; G14A/K291R/Y163H) (protein)
chain: MDASLFKDFKTSRAFNYHYFYSPAKGPRPTLFFLHGNPSVATDWAQIVPHFTSRGYGVLAPDMLGYGDTDKPTDPALYVSSGMCRNLVDLLDHEGLEKVIAIGHDWGCLSVSRLASYYPERVIAYAFLAASFIGPIPPIPFDAFLEYIKQQVGYELYGYWKFHSEPGLDQFVRDHLDTFLSILWPSDPAVWKTRLAPTGALKQSALEGWTAPLAPYITEEFKKHHVEVFNKNGFEAPACYYRIMTSGLQAEDDKQILPERAVPPKDAPVFFGAANKDYICIPALAYATFKRDEWKDHKITIKEYDADHWLILSHADQVSRDLEAWIEGFASGGQ
notes: catalytic triad D105/H308/D277
In the case of B1, in data set [1], the Km is 20.36 ± 1.34 mM, the kcat is 2480 ± 52.4 s⁻¹ and the kcat/Km amounted to 122000 M⁻¹ s⁻¹. In data set [2], the Km was 57.82 ± 7.75 mM and the kcat/Km was 36000 M⁻¹ s⁻¹.

B2: PchEHA (epoxide hydrolase) (Phanerodontia chrysosporium; C108S/G14A/K291R) (protein)
chain: MDASLFKDFKTSRAFNYHYFYSPAKGPRPTLFFLHGNPSVATDWAQIVPHFTSRGYGVLAPDMLGYGDTDKPTDPALYVSSGMCRNLVDLLDHEGLEKVIAIGHDWGSLSVSRLASYYPERVIAYAFLAASFIGPIPPIPFDAFLEYIKQQVGYELYGYWKFYSEPGLDQFVRDHLDTFLSILWPSDPAVWKTRLAPTGALKQSALEGWTAPLAPYITEEFKKHHVEVFNKNGFEAPACYYRIMTSGLQAEDDKQILPERAVPPKDAPVFFGAANKDYICIPALAYATFKRDEWKDHKITIKEYDADHWLILSHADQVSRDLEAWIEGFASGGQ
notes: as for B1
As for B2, in data set [1], the Km stood at 21.71 ± 2.6 mM, the kcat is 3020 ± 120 s⁻¹ and the kcat/Km stood at 139000 M⁻¹ s⁻¹. For the same protein, in data set [2], the Km turned out to be 51.04 ± 2.04 mM and the kcat/Km turned out to be 19700 M⁻¹ s⁻¹.

B3: PchEHA (epoxide hydrolase) (Phanerodontia chrysosporium; E251G/Y163H) (protein)
chain: MDASLFKDFKTSRGFNYHYFYSPAKGPRPTLFFLHGNPSVATDWAQIVPHFTSRGYGVLAPDMLGYGDTDKPTDPALYVSSGMCRNLVDLLDHEGLEKVIAIGHDWGCLSVSRLASYYPERVIAYAFLAASFIGPIPPIPFDAFLEYIKQQVGYELYGYWKFHSEPGLDQFVRDHLDTFLSILWPSDPAVWKTRLAPTGALKQSALEGWTAPLAPYITEEFKKHHVEVFNKNGFEAPACYYRIMTSGLQAGDDKQILPERAVPPKDAPVFFGAANKDYICIPALAYATFKKDEWKDHKITIKEYDADHWLILSHADQVSRDLEAWIEGFASGGQ
notes: as for B1
Consider B3, for which, in data set [1], the Km turned out to be 14.16 ± 1.19 mM, the kcat came out at 2350 ± 52.3 s⁻¹ and the kcat/Km came out at 166000 M⁻¹ s⁻¹. In data set [2], the Km is 30.39 ± 2.99 mM and the kcat/Km came out at 32500 M⁻¹ s⁻¹.

B4: PchEHA (epoxide hydrolase) (Phanerodontia chrysosporium; A24T/E251G) (protein)
chain: MDASLFKDFKTSRGFNYHYFYSPTKGPRPTLFFLHGNPSVATDWAQIVPHFTSRGYGVLAPDMLGYGDTDKPTDPALYVSSGMCRNLVDLLDHEGLEKVIAIGHDWGCLSVSRLASYYPERVIAYAFLAASFIGPIPPIPFDAFLEYIKQQVGYELYGYWKFYSEPGLDQFVRDHLDTFLSILWPSDPAVWKTRLAPTGALKQSALEGWTAPLAPYITEEFKKHHVEVFNKNGFEAPACYYRIMTSGLQAGDDKQILPERAVPPKDAPVFFGAANKDYICIPALAYATFKKDEWKDHKITIKEYDADHWLILSHADQVSRDLEAWIEGFASGGQ
notes: as for B1
Take B4: in data set [1], the Km was 26.28 ± 3.79 mM, the kcat was found to be 1660 ± 87.3 s⁻¹ and the kcat/Km worked out at 63100 M⁻¹ s⁻¹. Also, in data set [2], the Michaelis-Menten constant (Km) came to 43.98 ± 3.94 mM and the kcat/Km is 25900 M⁻¹ s⁻¹.

B5: PchEHA (epoxide hydrolase) (Phanerodontia chrysosporium; E251G/G14A/K291R) (protein)
chain: MDASLFKDFKTSRAFNYHYFYSPAKGPRPTLFFLHGNPSVATDWAQIVPHFTSRGYGVLAPDMLGYGDTDKPTDPALYVSSGMCRNLVDLLDHEGLEKVIAIGHDWGCLSVSRLASYYPERVIAYAFLAASFIGPIPPIPFDAFLEYIKQQVGYELYGYWKFYSEPGLDQFVRDHLDTFLSILWPSDPAVWKTRLAPTGALKQSALEGWTAPLAPYITEEFKKHHVEVFNKNGFEAPACYYRIMTSGLQAGDDKQILPERAVPPKDAPVFFGAANKDYICIPALAYATFKRDEWKDHKITIKEYDADHWLILSHADQVSRDLEAWIEGFASGGQ
notes: as for B1
Regarding B5, in data set [1], the Km was 22.6 ± 1.75 mM, the kcat worked out at 2250 ± 59 s⁻¹ and the kcat/Km was 99600 M⁻¹ s⁻¹. In data set [2], the Km is reported as 41.96 ± 2.07 mM and the kcat/Km was 38300 M⁻¹ s⁻¹.

B6: PchEHA (epoxide hydrolase) (Phanerodontia chrysosporium) (protein)
chain: MDASLFKDFKTSRGFNYHYFYSPAKGPRPTLFFLHGNPSVATDWAQIVPHFTSRGYGVLAPDMLGYGDTDKPTDPALYVSSGMCRNLVDLLDHEGLEKVIAIGHDWGCLSVSRLASYYPERVIAYAFLAASFIGPIPPIPFDAFLEYIKQQVGYELYGYWKFYSEPGLDQFVRDHLDTFLSILWPSDPAVWKTRLAPTGALKQSALEGWTAPLAPYITEEFKKHHVEVFNKNGFEAPACYYRIMTSGLQAEDDKQILPERAVPPKDAPVFFGAANKDYICIPALAYATFKKDEWKDHKITIKEYDADHWLILSHADQVSRDLEAWIEGFASGGQ
notes: as for B1
As to B6, in data set [1], the Km is listed as 25.75 ± 2.08 mM, the kcat worked out at 1740 ± 50.8 s⁻¹ and the kcat/Km was 67500 M⁻¹ s⁻¹. In data set [2], the Km is reported as 39.23 ± 4.49 mM and the kcat/Km was 34400 M⁻¹ s⁻¹.

What is called Km is the substrate concentration at which the rate is half of its maximum. As usually defined, the kcat is the number of substrate molecules converted per active site and unit of time at saturation. What is called kcat/Km is the turnover number divided by the Michaelis constant.
